Data from the DeepSol protein solubility set.

assay: soluble on expression in E. coli; label from the status in PepcDB or PDB records

Row | Sequence | soluble on expression in E. coli
1 | SMFRDQVGVLAGWFKGWNECEQTVALLSLLKRVSQTQARFLQLCLEHSLADCAELHVLEREANSPGIINQWQQESKDKVISLLLTHLPLLKPGNLDAKVEYMKLLPKTLAHSIEHNQHIEESRQLLSYALIHPATSLEDRSALAMWLNHLEDRTSTSFGGQNRGRSDSVDYGQTHYYHQRQNSDDKLNGWQNSRDSGICINASNWQDKSMGCENGHVPLYSSSSVPTTINTIGTSTSTSKFPGIPLT | soluble
2 | LERRWRRRREAGAGAEAAAGSARPLGRQAAAARGSSPEAGAAAMAESIIIRVQSPDGVKRITATKRETAATFLKKVAKEFGFQNNGFSVYINRNKTGEITASSNKSLNLLKIKHGDLLFLFPSSLAGPSSEMETSVPPGFKVFGAPNVVEDEIDQYLSKQDGKIYRSRDPQLCRHGPLGKCVHCVPLEPFDEDYLNHLEPPVKHMSFHAYIRKLTGGADKGKFVALENISCKIKSGCEGHLPWPNGICTKCQPSAITLNRQKYRHVDNIMFENHTVADRFLDFWRKTGNQHFGYLYGRYTEHKDIPLGIRAEVAAIYEPPQIGTQNSLELLEDPKAEVVDEIAAKLGLRKVGWIFTDLVSEDTRKGTVRYSRNKDTYFLSSEECITAGDFQNKHPNMCRLSPDGHFGSKFVTAVATGGPDNQVHFEGYQVSNQCMALVRDECLLPCKDAPELGYAKESSSEQYVPDVFYKDVDKFGNEITQLARPLPVEYLIIDITTTFPKDPVYTFSISQNPFPIENRDVLGETQDFHSLATYLSQNTSSVFLDTISDFHLLLFLVTNEVMPLQDSISLLLEAVRTRNEELAQTWKRSEQWATIEQLCSEYPHPLPRHPVAGAGEQPTLHSSPLPVVPWIPHPAASWQVPSAMQRVETRPPCQARGRLR | soluble
3 | MSEGSKQNKKSTDAFSKYMRKLFGIQEITESQREYIEKLERELESAKGTLSTREEKEMIRGLVKFGNIMVKQIMCPRMDMAAVDIALNYEQLQEYISTCGFSRIPVYKESADKIEGVLNIKDLFPFYNKEKDFNWQQLIRTVEFIPETKLIEELLREFQLKHLHMAIVVDEYGGTAGLITMEDVIEEIVGDIHDEYDDDEKPYAQLSDTSYLFEGKISLVDFYKAIELDKDIFDEVKGESETLGGLLLNINSDLPRLGDEIIYEGYVFKIDAVNSKRILRVKVTVPENSENEK | soluble
4 | MWRSSLMCLPDTSWGAMETTFVLDALEQALWARRPSGTVHHSDKGSQYVSLAYTQRLKEAGLLASTGSTGDSYDNAMAESINGLYKAEVIHRKSWKNRAEVELATLTWVDWYNNRRLLERLGHTPPAEAEKAYYASIGNDDLAA | not soluble
5 | MAVPQLYYFNLRGFGEYIRLLFLDNGIQFEDIRFDYEGKEWQEFKKGMLLGQLPCLKVDRQEIVQTGAIMRHLGRVHEKNLARNFNFSKKYLMGKLTFLEKCGLNGSNEQEATFLDMFFEGVRDVRWKYVRSSRTLKSFWERMWKRPNLNAYLEKRKADKVRINGSDKGMN | not soluble
6 | MISVFDMFKVGIGPSSSHTVGPMKAGKQFIDDLIKRNQFEQTTEIHVDVYGSLSMTGRGHSTDIAIIMGLAGYLPHNVDIDMISGFIEKVKQTALLPINVGQKIVKFDFENNLIFHRTFLKLHENGMTITALDENRTELYRQTYYSIGGGFIVDEAHFGK | not soluble
7 | MSLKLGIIGSGKIVHDFLTAIDQINNLDVVAISSTKRSENIAQELAKKYSINKTYTDNDELMSDPDVDTVYVAVPNFLHYQVAKAALEHGKNVICEKPFVDSTNEAKKLKQLADEKNLIIVEAITNIYLENFKRIQREIENIAPIHIVSLNYTQYSSRYDDFLKGKIAPVFDPAKDGGTLMDLNIYNIHLVSALFGLPDKVKYYANMQKGVDTSGILHLSYPDKQAALIAAKDSYVTPRSFIEGEKGSIYIDGSTGELNNFTIEMRDQKPKRYNLNKYSHRMASEFNAFVEMIDNHDKVKADEAFVNTLESMQILTTAKNSEEGHHHHHH | soluble
8 | LTVGDWLDSIRMGRYRDHFAAGGYSSLGMVLRMNAQDVRALGITLMGHQKKILGSIQTMRAQLTSTQG | soluble
9 | METKPSQGLYPLHRCKTIHLVRHAQGIHNVEGEKNHKAYLSEDLFDAHLTPLGWQQVDNLHKHVNASGISNRIELVVVSPLLRTLQTAVGTFGGEGYKDGVNTPLLMTAGAGNSDRPAISRLNRPPFIAVESCREHLGVHPCDRRSNITKYRELFPAIDFSLIETDEDVLWKPDIREEDKDIATRGVKFFNWLSTRKEKEIAVVTHSGFLYQTLNSFGNDCDPSVKNEISKKFVNCELRSFVLVDKCMSSSDPPMTNYPGTILTGEDASSDIADQK | soluble
10 | MRITDLLSKDVMIMSLQATTKEAAIDEMIASLKSNGKINDEVLFKEAIMNREAQSSTGVGEGIAMPHAKTKAVNEPTVVFAKSEKGLDYNSLDGQPAHLFFMIAAPDGANATHLETLAALSRLLVHPAFVQSLKDAKTPDDVITLFNNEQGDAEE | not soluble
11 | MSLKKPALKYCGIRSLKDLQLAAESQADYLGFIFAESKRKVSPEDVKKWLNQVRVEKQVAGVFVNESIETMSRIAKSLKLDVIQLHGDEKPADVAALRKLTGCEIWKALHHQDNTTQEIARFKDNVDGFVIDSSVKGSRGGTGVAFSWDCVPEYQQAAIGKRCFIAGGVNPDSITRLLKWQPEGIDLASGIEKNGQKDQNLMRLLEERMNRYVSISEEGHHHHHH | soluble
12 | MGSDKIHHHHHHMITTARPNVLWIMADQLRFDYLSCYGHPHLHTPHIDALAARGVRFTNAYVQSPVCGPSRMSAYTGRYVRSHGSTWNGMPLRVGEPTLGDHLREAGARAVLVGKTHMVADAEGMAWLGIDPKSEIGVSRSECGFEPFERDDGLHPDSPRQRWSAYDDYLVSHGYDSQNPWEDFANSGVDADGELLSAWLLKNSRLAANVPEEHSETAYMTDRAMAFMEEAEADGRPWMCHLSYIKPHWPYIVPAPYHDMYDESHIIDPVRSEAERDNAHPLVGAYQNSRVCRTFSRDQVRDHVIPAYMGLIKQLDDNLGRLFAWMDARGLSENTIIAFTSDHGDYMGDHWMGEKDFYHEMAVKVPMIIADPRPQADGTRGHVADDLVEMIDLAPTFMTALGAAPKPHIIEGRDLTPLLHGTDGFARQYVISEYDYHWSEMAAALQVPQEDAHTTMIFDGRWKYIRCERFDPVLFDLETDPQELVDLGTSPAHAEIRALMDAALLKWATQHHTRITATAAVLAGQKIAAETGILIGFWDEAEFEAATGFPFTDLTPQGPPK | not soluble
13 | MPGYYKISHSWEYRRRTCQDDVLLEAVITSDTNLNTEKTLLQWLNDKNKNKGTNTVDYKDITCWYYGGVWLHYAINNNALSLYMHSSGEDAFDSLNYCAYEIAKTFYKNHSDISILWIEHPHKRNKLKET | not soluble
14 | MSFSERLLAAWYQGHPALALLRPLEALYRRVANGRRADFLSGRKPAYRAPLPVLVVGNITVGGTGKTPMILWMIEHCRARGLRVGVISRGYGARPPTTPWRVRAEQDAAEAGDEPLMIVRRSGVPLMIDPDRPRALQALLAEEQLDLVLCDDGLQHYRLARDLELVLIDAARGLGNGRCLPAGPLREPAERLESVDALLYNGADEDPDGGYAFRLQPTALINLQSGERRPLEHFPAGQEVHALAGIGNPQRFFRTLEALHWRAIPHAFPDHATYTAAELAFSPPLPLLMTEKDAVKCRAFAAADWWYLAVDAVPSPAFVAWFDARLEH | not soluble
15 | MAHHHHHHMNPMDALIARAAAEERQQAKMKQKSTRVSGESDLDHPSPSAAFPDSVISRGERASILCYVDPAATTTSSNFSVRRLRTFSACPTFKGGMIMRLTMCHDAQHLTVAFESGHIVLARYRDADVIDMADEPGEVCHAGGSMSVARVRNVTRAFADSALACWWSGRRMLACSSEGGMHCYDVSATAEGLLEAHLVWSVTLRKGIGSVFLQRNLVVAGCWDSTLRLYDARDGRLVSILSYQRETINEVRAAPPSIARVAAFGFDVRQPRLYAGQPGALSTKIPACIASNSKAVTQGNLPQFSESPLRETYVAGTPTPHSSSGSLAAEEQLVYLFASASKACTVALWRVDLGLVVEQTAREAIAAQTV | not soluble
16 | MGSDKIHHHHHHGCSFLIKEVNVKQENEAGEMVAYIKAGEIATFTFSGEINIDGDASNETFIVGFLAPRSWNVRQNATVTYREDRYETEVDHKMTVIPDTEQPANYKGMSWSAALKKKYGVRGNVLNDMEWIAFKSDNYPSVNGTIHYTVTIKCNSGKSNLKFRPSFFINHSSDGIGGDEAHYSVKDADDCFEVVEGSGTVIDFCSTHYYQIEPLSALQDDYVTFTFQGDINTNELIKAENVYIEATAYTIEGKIYTVNEKSAKTLMKRETKLPRYNVTLWPGGFFNIPDGETISRIEYIFTNEDGTVSISQSDDSRDNEGEEVEEGIKEPFVFEFQCE | not soluble
17 | GMAYGSSNPEDLAKNFTKDLYSGDTKSVMSYIDLSEAKSDEEKTFVSDKITQVVAENAAKAKRMGGVKDIQIEEKTINKDSAKIRVLVLFNNDNNQSSNVFLAKKDRKWLVLLK | soluble
18 | NKDMSFTVRGNYTFSQNIIDYYEENKLPYDYLSVTGKPFNILRGYIAEGLFSSKEEINTSADQSGFGRIRPGDIKYRDVNGDGIINDDDKVPLSYSNQLPRVMYGFGADFHWKDLTLSFLFKGSAKVDYYRSGLGNDAGWIPFYNGELGNVIKLANNPKNRWTPAWYSGTTATENPHAEFPRLSYGGNTNNSQLSSFWKRNGSFLRFQELSLKYNLKTPWIKKTGLSSVDLEFVANNLFTIDKVKYFDPEQASANGAAYPIPATYTFQVYLKF | not soluble
19 | SELSQLLNEIRANYEKILTRNQIETVLSTRIQLEEDISKKMDKDEEALKAAQAELKEARRQWHHLQVEIESLHAVERGLENSLHASEQHYQMQLQDLETVIEGLEKELQEVRRGIEKQLQEHEMLLNTKMRLEQEIATYRHLLEKEEIRYYGCIQGGKKDKKPTTSRVGFVLPSAIINEISFTTKVPQKYENENVETVTKQAILNGSIVKESTEAHGTIQTEKVDEVIKEWEGSFFKDNPRLRKKSVSLRFDLHLAATDEGCLETKQDNLPDIEVRLIMRRSCSIPSIKPPSTAN | soluble
20 | MAAEIINGEKVIRKPNALYSDYPRKGGAASTATHYCPGCGHGVLHKLIAEAIDDLGIQDRTVMISPVGCAVFAYYYFDTGNIQVAHGRAPAVGTGVSRAEENAVVISYQGDGDLASIGLNETLQAANRGEKIAVFFVNNTVYGMTGGQMAPTTLIGEKTTTTPEGRDPRFAGYPLHMCELLDNLKAPVFIERVSVSDISHIRKARKAIRKALEVQRDGKGYAFVEVLAACPTNLRMDAEQAVSFINEEMEKEFPLRNFRDDSESTEPLYRGVSDFTTESLEKLYGIEADAGEKPVRADFAPIQTKIAGFGGQGVLSMGIVLAQAGVKANLNASWFPSYGPEQRGGTSNCSVVISGQPIGSPTVYTPDILIAMNRPSLERFEGAVRKGGFILYDSTIGEAETPEGVKAVSVPATEKAKEAGDERAANSFMLGVLLGLNATGLEEEAFKGALAENFAGKPRVIAFNQQMLEAGAEWARENVKI | not soluble
21 | MGSDKIHHHHHHMKTIQPIDWLQPKTEAEEIRFRSTGFRWGNKGTHTSRTIMLDELRALLNYSRPDATRDDYVSVIIEDNCLGKRTASTRKLSLQRLSELYALDPKVLLFQLMRYFWYADRSGQAILPLLLALARDPLLRATAASVLCMHPGEEFARQPMTDALNQAAGGRFNEGTLNKIVRNAASSWTQTGHLKGRSHKVRQSIAPTAITTAYALLLGYLTGTRGAKLFETPWAQALDTPPSTLMHLAMDARRLGFLDMSQSGGIVELGFSRLLPLDERR | not soluble
22 | MTKLGYVMTKSSAKNFKIYINGSAKGFKNIIISGAKAWNPSPYLNTVSIGNDVRPNYTVSSSGTNKGSVLAVCNTTYYKSNKLISKNEITLYKGFRSLSTNHKIETIVHEFGHGFGLGHVKTKNAIMLDKGFINKTKPQTDDFNGIKALYKLEHHHHHH | soluble
